Measurements reported in patent publication US20260167959A1, “APTAZYME-BASED REGULATABLE GENE EXPRESSION SYSTEMS” (REJUVENATE BIO INC, priority 2022, published 2026).
Numbering of substitutions follows the chain as printed.

B1: RA151 (nucleic acid)
DNA: GCGCGTCCTGGATTCGCGGAAACGCGTACCGGAATACCAGCATCGTCTTGATGCCCTTGGAAGTCCGGCATCCAGCTGACGAGTCCCAAATAGGACGAAACGCGC
modifications: expressed or natural sequence
B2: RA014 (nucleic acid)
DNA: GCGCGTCCTGGATTCGCGGAAACGCGTACATCCAGCTGACGAGTCCCAAATAGGACGAAACGGAATACCAGCATCGTCTTGATGCCCTTGGAAGTCCGCGC
modifications: expressed or natural sequence
B3: RA165 (nucleic acid)
DNA: GCGCGTCCTGGATTCGCGGAAACGCGTAGAGAATACCAGCATCGTCTTGATGCCCTTGGAAGTCTCCATCCAGCTGACGAGTCCCAAATAGGACGAAACGCGC
modifications: expressed or natural sequence
B4: RA153 (nucleic acid)
DNA: CGAGAATACCAGCATCGTCTTGATGCCCTTGGAAGTCTCGGCGCGTCCTGGATTCGCGGAAACGCGTACATCCAGCTGACGAGTCCCAAATAGGACGAAACGCGC
modifications: expressed or natural sequence
B5: RA154 (nucleic acid)
DNA: GCGCGTCCTGGATTCGCGGAAACGCGAGAATACCAGCATCGTCTTGATGCCCTTGGAAGTCTCGTACATCCAGCTGACGAGTCCCAAATAGGACGAAACGCGC
modifications: expressed or natural sequence
B6: RA161 (nucleic acid)
DNA: GCGCGTCCTGGATTCGCGGAAACGCGTACATCCAGCTGACGAGTCCCAAATAGGACCCGGAATACCAGCATCGTCTTGATGCCCTTGGAAGTCCGGGAAACGCGC
modifications: expressed or natural sequence
B7: RA164 (nucleic acid)
DNA: GCGCGTCCTGGATTCGCGGAAACGCGTACATCCAGCTGACGAGTCCCAAATAGGACGCGAGAATACCAGCATCGTCTTGATGCCCTTGGAAGTCTCGAAACGCGC
modifications: expressed or natural sequence
B8: RA147 (nucleic acid)
DNA: GCGCGTCCTGGATTCGCGGAAACGCGTACATCCAGCTGACGAGTAGAATACCAGCATCGTCTTGATGCCCTTGGAAGTCTCCCAAATAGGACGAAACGCGC
modifications: expressed or natural sequence
B9: RA163 (nucleic acid)
DNA: GCGCGTCCTGGATTCGCGGAAACGCGTACATCCAGCCGGAATACCAGCATCGTCTTGATGCCCTTGGAAGTCCGGCTGACGAGTCCCAAATAGGACGAAACGCGC
modifications: expressed or natural sequence
B10: RA155 (nucleic acid)
DNA: GCGCGTCCTGGATTCGCGGAAACGCGTACATCCAGCTGACGAGTCCCAAATAGGACGAGAATACCAGCATCGTCTTGATGCCCTTGGAAGTCTCGCGAAACGCGC
modifications: expressed or natural sequence
B11: RA148 (nucleic acid)
DNA: GCGCGTCCTGGATTCGCGGAAACGCGTACATCCAGCTGACGAGAGAATACCAGCATCGTCTTGATGCCCTTGGAAGTCTTCCCAAATAGGACGAAACGCGC
modifications: expressed or natural sequence
B12: RA160 (nucleic acid)
DNA: B11 DNA with A44G, T79C
modifications: expressed or natural sequence
B13: RA016 (nucleic acid)
DNA: GCGCGTCCTGGATGAGAATACCAGCATCGTCTTGATGCCCTTGGAAGTCTCTCGCGGAAACGCGTACATCCAGCTGACGAGTCCCAAATAGGACGAAACGCGC
modifications: expressed or natural sequence
B14: RA145 (nucleic acid)
DNA: GCGCGGAATACCAGCATCGTCTTGATGCCCTTGGAAGTCCGTCCTGGATTCGCGGAAACGCGTACATCCAGCTGACGAGTCCCAAATAGGACGAAACGCGC
modifications: expressed or natural sequence
B15: RA015 (nucleic acid)
DNA: GCGCGTCCTGGATTCGCGGCGGAATACCAGCATCGTCTTGATGCCCTTGGAAGTCCGAAACGCGTACATCCAGCTGACGAGTCCCAAATAGGACGAAACGCGC
modifications: expressed or natural sequence
B16: RA156 (nucleic acid)
DNA: GCCGGAATACCAGCATCGTCTTGATGCCCTTGGAAGTCCGGCGCGTCCTGGATTCGCGGAAACGCGTACATCCAGCTGACGAGTCCCAAATAGGACGAAACGCGC
modifications: expressed or natural sequence
B17: RA158 (nucleic acid)
DNA: GCGCGTCCTGGATTCGCGGAAACGCGTACATCCAGCTGACGAGTCCCAAATAGGACGAGTGATACCAGCATCGTCTTGATGCCCTTGGCAGCACTAAACGCGC
modifications: expressed or natural sequence
B18: RA166 (nucleic acid)
DNA: GCGCGTCCTGGATTCGCGGAAACGCGTACATCCAGCTGACGAGTCCCACGAGAATACCAGCATCGTCTTGATGCCCTTGGAAGTCTCGAATAGGACGAAACGCGC
modifications: expressed or natural sequence
B19: RA144 (nucleic acid)
DNA: GCGCGCGAGAATACCAGCATCGTCTTGATGCCCTTGGAAGTCTCGTCCTGGATTCGCGGAAACGCGTACATCCAGCTGACGAGTCCCAAATAGGACGAAACGCGC
modifications: expressed or natural sequence
B20: RA159 (nucleic acid)
DNA: GCGCGTCCTGGATTCGCGGAATACCAGCATCGTCTTGATGCCCTTGGAAGTCCGCGGAAACGCGTACATCCAGCTGACGAGTCCCAAATAGGACGAAACGCGC
modifications: expressed or natural sequence
B21: RA152 (nucleic acid)
DNA: GCGCGTGGAATACCAGCATCGTCTTGATGCCCTTGGAAGTCCCCTGGATTCGCGGAAACGCGTACATCCAGCTGACGAGTCCCAAATAGGACGAAACGCGC
modifications: expressed or natural sequence
B22: RA157 (nucleic acid)
DNA: GCGCGTCCTGGATTCGCGGAAACGCGTAAGAATACCAGCATCGTCTTGATGCCCTTGGAAGTCTCATCCAGCTGACGAGTCCCAAATAGGACGAAACGCGC
modifications: expressed or natural sequence
B23: RA162 (nucleic acid)
DNA: GCGCGTCCTGGATTCGCGGAAACGCGTACATCCAGCTGACGAGTCCCAAATAGGGGAATACCAGCATCGTCTTGATGCCCTTGGAAGTCCACGAAACGCGC
modifications: expressed or natural sequence
B24: RA149 (nucleic acid)
DNA: GCGCGGAGAATACCAGCATCGTCTTGATGCCCTTGGAAGTCTCTCCTGGATTCGCGGAAACGCGTACATCCAGCTGACGAGTCCCAAATAGGACGAAACGCGC
modifications: expressed or natural sequence
B25: RA150 (nucleic acid)
DNA: GCGCGTCCTGGATTCGCGGAAACGCGTACATCCAGCTGACGAGTCCCAAATAGGACGAAAGGAATACCAGCATCGTCTTGATGCCCTTGGAAGTCCCGCGC
modifications: expressed or natural sequence
B26: RA167 (nucleic acid)
DNA: GCGCGTCCTGGATTCGCGGAAACGCGTACATCCAGGGAATACCAGCATCGTCTTGATGCCCTTGGAAGTCCCTGACGAGTCCCAAATAGGACGAAACGCGC
modifications: expressed or natural sequence
B27: RA146 (nucleic acid)
DNA: GCGCGTCCTGGATTCGCGGAAACGCGTACATCCAGCTGACGAGTCCCAAATAGGAATACCAGCATCGTCTTGATGCCCTTGGAAGTCCGGACGAAACGCGC
modifications: expressed or natural sequence

Tested on: Renilla luciferase RNA
Assay: Barcoded aptazyme variant library screen: un-cleaved Renilla luciferase RNA by barcode read counts, HEK293-T cells
Format: cell-based
Settings: un-cleaved Renilla luciferase RNA, HEK293-T cells cultured with 1 mM theophylline (ON) over without theophylline (OFF); barcode read counts, triplicate
In short: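 Aptazyme variants (seven theophylline aptamers inserted after each T3H48 ribozyme nucleotide, 9-nt barcoded) cloned into the 3′ UTR of Renilla luciferase in psiCHECK-2; cells cultured ± theophylline, in triplicate. RNA and DNA barcodes amplified and sequenced; normalized read counts gave un-cleaved RNA fraction and ON/OFF fold-change.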

Row | Molecule | Fold change in RNA expression between the ON state and the OFF state [fold]
1 | B1 | 1.4
2 | B2 | 3.1
3 | B3 | 1.3
4 | B4 | 1.3
5 | B5 | 1.3
6 | B6 | 1.3
7 | B7 | 1.3
8 | B8 | 1.4
9 | B9 | 1.3
10 | B10 | 1.3
11 | B11 | 1.4
12 | B12 | 1.3
13 | B13 | 2.8
14 | B14 | 1.4
15 | B15 | 3.0
16 | B16 | 1.3
17 | B17 | 1.3
18 | B18 | 1.3
19 | B19 | 1.4
20 | B20 | 1.3
21 | B21 | 1.4
22 | B22 | 1.3
23 | B23 | 1.3
24 | B24 | 1.4
25 | B25 | 1.4
26 | B26 | 1.3
27 | B27 | 1.4
